Assays:
[1] = PET hydrolysis, aromatic products released after 48 h (umol product/mg enzyme); higher = more PET depolymerization activity
Procedure, shortened: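 Reactions ran in sealed plates without shaking for 48 h at 40 or 60 °C. Each held 3.5 mg amorphous PET film or crystalline PET powder, 450 μL buffer and 5 μg (50 μL) of tagless, SUMO-cleaved, nickel-purified candidate enzyme. Buffers were 50 mM NaCitrate at pH 4.5 or 5.5, 50 mM NaPhosphate at pH 6.5 or 7.5, and glycine at pH 8.5. The supernatant's aromatic product, read at 260 and 280 nm against buffer blanks, gives PET hydrolysis activity per mg enzyme.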

[2] = melting temperature (DSF); higher = more thermostable
Procedure, shortened: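 Enzymes made in E. coli C41(DE3) were nickel-bead purified and cut free with SUMO protease before testing. Differential scanning fluorimetry gave each melting temperature. For this, 5 μL 5X Sypro Orange was added to 45 μL enzyme (0 to 0.3 mg/mL) in sealed PCR plates, and a Bio-Rad CFX96 read fluorescence from 25 °C over 250 cycles of 0.3 °C each, ramping at 0.3 °C/s.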

[3] = purified protein yield per well (BCA); higher = higher soluble expression
Procedure, shortened: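 Each candidate enzyme was grown in E. coli C41(DE3) in a 2 mL autoinduction culture (100 µg/mL kanamycin; 2 h at 37 °C, then 40 h at 18 °C) and purified robotically via Ni-charged magnetic beads with SUMO protease cleavage. Purified protein yield per well was assessed using the Pierce Rapid Gold BCA kit. Readings below 25 ug (0.1 mg/mL) are beneath the detection threshold.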

[4] = substrate: cryPow, 40 °C, pH 5.5
[5] = substrate: cryPow, 40 °C, pH 6.5
[6] = substrate: cryPow, 40 °C, pH 7.5
[7] = substrate: cryPow, 40 °C, pH 8.5
[8] = substrate: cryPow, 60 °C, pH 5.5
[9] = substrate: cryPow, 60 °C, pH 6.5
[10] = substrate: cryPow, 60 °C, pH 7.5
[11] = substrate: cryPow, 60 °C, pH 8.5
[12] = substrate: cryPow, 40 °C, pH 4.5
[13] = substrate: cryPow, 60 °C, pH 4.5

SAQVTRQAAGSYARGPAPTLAGIRAALGPFAYSTVTVTAAQAGGAFGGGTIYYPDDTSQGTFGGVAAVPGYQSAEKAVAWLGPRLASQGFVVITIATNGLTDQPTARGKQLLGALDYLTAQSPAAVRQRLDPNRLAVTGHSMGGGGTLYAAWTRPSLKAAVPLAPWHTIKNWSGITVPTLVQGGTQDTTAQVGTFAEPIYQSLTGARERAYAEIADAAHGTFVRENPLIGALEVAWLKRFVDDDGRYEQFLCPAPADSELTEYRDSCPSS [DP009]
PET hydrolysis [1, 4]: 4
PET hydrolysis [1, 5]: 5
PET hydrolysis [1, 6]: 6
PET hydrolysis [1, 7]: 10
PET hydrolysis [1, 8]: < 3
PET hydrolysis [1, 9]: < 3
PET hydrolysis [1, 10]: < 3
PET hydrolysis [1, 11]: < 3
melting temperature [2]: 46.9 C
purified protein yield per well [3]: 165 µg

SNPAPDTGSGDGSSSQYQIGPDPTVSFLEASSGPFSVRTSNVSSLVSGFGGGTIHYPTGVNRPMAAIVVIPGFVSAESSIDWWGPKLASYGFVVMTIGTNSGFDQPPSRARQINNALDYLVAQNTNSRSPVNGMIDTNRLGAMGWSMGGGGTLRVAEEGRIKAAIPLAPWDTTSFRSNRTPTLIFACGSDSIAPVRTHASPFYNQIPTSTPKIFIEINRGNHYCANGGNSNNATLGRLGVAWMKRFLDEDRRYSQFLCGPRHTSDRNISESRDTCNF [ESM186]
PET hydrolysis [1, 12]: < 3
PET hydrolysis [1, 4]: < 3
PET hydrolysis [1, 5]: 3
PET hydrolysis [1, 6]: 13
melting temperature [2]: 53.8 C
purified protein yield per well [3]: 43 µg

SPSPGTPGGDNPYQRGPDPTVASVAAQYGPFATAQITVPPGNGFNGGFIYYPTDTSHTYGAVAIVPGYTALFADEEAWMGPRLASFGFVVIGVETNSRTDYDTARGTQLLAALDYLTNSSAVRDRVDRNRLSVIGHSMGGGGSLYAATQRPSLKAAIGLAPFKPSGNLASDTVPTMIIGGINDTTVTPSYLDGLYPTLPAATPGAYLQLANADHLYFTRPNDIELRSQIEWLKIFVDNDTRYTPFLCPSVKDTTGIVRSSVKCSTVPGGGSTPSSSRILGTQSGRCVDVPGATHNNGTRVQLYDCNGQANQQWTYTSSKQLTVYGTVCLDAAGSGNGSAVQIYSCNGQANQQWNVNANGTITGVQSGRCLDVWGTGNGQQIQIYDCNGQANQKFSLN [ESM136]
PET hydrolysis [1, 12]: 5
PET hydrolysis [1, 4]: 18
PET hydrolysis [1, 5]: 13
PET hydrolysis [1, 6]: < 3
PET hydrolysis [1, 13]: < 3
PET hydrolysis [1, 8]: < 3
PET hydrolysis [1, 9]: < 3
PET hydrolysis [1, 10]: < 3
melting temperature [2]: 55.6 C
purified protein yield per well [3]: 61.4 µg

SSCDIMGDVNEDSEVDIVDALLIAQAYVGLNPTIEYHPCADVNCSGSVDIVDALLIAQKYVGLISEFSCQNTPEPTIEPTSAPVLNIACGSSSALGIFQEDQYYSGGSTHNNSNTIDVSRITVNTPPTGLFNNERYGEMSYTIPDLSAGDTYTVTLYFAETYLTSPGSRLFNVSINSTEVLTNFDIYAAAGGQNNGISQSFITTANTSGRIVIDFTAVTENPKINGISIVTGIGPTNIPTPEPTPTPENSGFQRGPDPSLESISANRGTFATAELTFPAGNGFGGGFIYYPTDTSLGTWAAVAICPGGSAKFANEETWMGHWLASFGFVVIGMETNNTYDYPESRGTQLLAALDYLTQKSAVKDRVDPDRLMVMGHSMGGGGAFHAAMARSSLKTMVALAPWFNSSLTSPSMTNLHMPAMIISARNDTVVTPASCSAIYDKIPTTTQRAWVELAADDHLGFTKSNPTEMRVLIPWMKIFLDNDERYVQFLCPIANSSNISVYKNSCPFVP [TEP039]
PET hydrolysis [1, 12]: < 3
PET hydrolysis [1, 4]: < 3
PET hydrolysis [1, 5]: < 3
PET hydrolysis [1, 6]: < 3
melting temperature [2]: 50.8 C
purified protein yield per well [3]: 34.3 µg

STRNQEPTLQSIEAARGPYEIATQSVPPAVNTGFGGGTIYYPATTGAGKFGAVALSPGYMEKEYSFSWLGTRLASQGFVVFIINTQNSEEFPSARTDELLASLNYLTQTSEVRDRVDPNRLAVMGHSMGGGAALEAAEKNQSLRAVISMTPWNIKTTYSDIKTPTLIIGAQYDNIAPVHDHAQPSYASLPNDLAKSYLELRNGNHFSPNMENTAIARSSTVWLKRFVDGDTRYNKFICPGPTVGDEFNIVQSNCPIL [DP079]
PET hydrolysis ([1]; substrate: aFilm, 40 °C, pH 5.5): < 3
PET hydrolysis ([1]; substrate: aFilm, 40 °C, pH 6.5): < 3
PET hydrolysis ([1]; substrate: aFilm, 40 °C, pH 7.5): < 3
PET hydrolysis ([1]; substrate: aFilm, 40 °C, pH 8.5): < 3
PET hydrolysis ([1]; substrate: aFilm, 60 °C, pH 5.5): < 3
PET hydrolysis ([1]; substrate: aFilm, 60 °C, pH 6.5): < 3
PET hydrolysis ([1]; substrate: aFilm, 60 °C, pH 7.5): < 3
PET hydrolysis ([1]; substrate: aFilm, 60 °C, pH 8.5): < 3
PET hydrolysis [1, 4]: < 3
PET hydrolysis [1, 5]: < 3
PET hydrolysis [1, 6]: < 3
PET hydrolysis [1, 7]: < 3
PET hydrolysis [1, 8]: < 3
PET hydrolysis [1, 9]: < 3
PET hydrolysis [1, 10]: < 3
PET hydrolysis [1, 11]: < 3
melting temperature [2]: 60.4 C
purified protein yield per well [3]: 281 µg

TDNPHQRGPNPSQASISANRGTFATAETSVGSGNGFGAAKIYYPTDTGQGTFGAIAVSPGYTATWAAEGAWMGHWLASFGFVVIGIDTINRNDFDVARGTQLLAALDYLTQRSSVRTRVDPSRLAVMGHSMGGGGTISAALRRPTLKAAIGLAPYSPSQTTTGMQVPTVLLAGQNDGTSTPASIITLHNNIPASTEKAYLELTGAGHGFPTSNNSVVTRKVIPWMKIFIDQDTRYTQFLCPLQDWTGIRSYRNSCPLLPNDPGTTFSLAGSASGKCVDVPGRVQTNGTGLIIWTCNGAANQHWTRTAAGELRIYGNSKCMDASGQGARVTINSCNGGSGQKWTVGTNGTVTNAASAGCLDTGGTADNAPVIVTTCNGGSGQIWIKRS [ESM184]
PET hydrolysis [1, 12]: < 3
PET hydrolysis [1, 4]: < 3
PET hydrolysis [1, 5]: < 3
PET hydrolysis [1, 6]: < 3
melting temperature [2]: 43 C
purified protein yield per well [3]: 34 µg

VEIGPNPTSTLLNGNGPFSVSSSSVSSWVSGFGGGTIYYPTASGQYGVIAVCPGYTGTSSSISWFARRLATHGFVTIAMNTNSRFDFPDSRATQLAAALNYLLNSSSSTIRSRIRTADRGVAGHSMGGGGTLRASERDSNLKVGIPLTPWHTDKTWGSLSVPQMIFGADGDTVAPASSHARTFYNSIPSSTKKAYALLNNASHFTPNSTDERIGRYGVAFAKRFVDGDTRYEPFLCGAEHSTYATSWKFDTYLSTCPYGGGSEPEPDYPWWYWWR [ESM162]
PET hydrolysis [1, 12]: < 3
PET hydrolysis [1, 4]: < 3
PET hydrolysis [1, 5]: < 3
PET hydrolysis [1, 6]: < 3
melting temperature [2]: 69.7 C
purified protein yield per well [3]: 31.8 µg

VQIGPAPTKASLEASRGPFTVATTRLSANGHGGGTIYYPTNAGAKVGVIAIVPGYLSYQSSIEWWGPRLASHGFAVVTIDTLTIYDQPSSRSSQQLRALDQVVALGSKSTSPLYNKVDGSRTGVMGWSMGGGGSLISAQNRPSIKAAAPQAPWNTTSNFSSLTVPTLIFACQADVVAPILSHAVPFYNSMSRNPKQYLERTAGDHFCFNNANPTVGLKGVAWMKRFIDGDTRYTSFACSNPNALGFSSFRTERCS [ESM053]
PET hydrolysis [1, 12]: < 3
PET hydrolysis [1, 4]: 6
PET hydrolysis [1, 5]: 10
PET hydrolysis [1, 6]: 32
PET hydrolysis [1, 13]: < 3
PET hydrolysis [1, 8]: < 3
PET hydrolysis [1, 9]: 6
PET hydrolysis [1, 10]: 10
melting temperature [2]: 62.8 C
purified protein yield per well [3]: 103 µg

VQIGPNPTKSSLEASRGPFSTSQFTVSRPSGYGAGTVYYPTNAGAKVGAIAIVPGFLSYQSSINWWGPRLASHGFVVITIDTYTTGDQPDSRSRQQLAALDQVIALGNTSSSPIYGKVDGSRTGVMGWSMGGGGSLISAKNRPSIKAAAPQAPWNTSTNFSSVTVPTLIFACQSDIVAPVISHAIPFYNSMTRNPKQYLEKTLGDHFCFNNANATVGLKGVAWMKRFVDGDTRYTSFACSNPNAFGFSDFRTARCS [ESM045]
PET hydrolysis [1, 12]: 5
PET hydrolysis [1, 4]: 12
PET hydrolysis [1, 5]: 22
PET hydrolysis [1, 6]: 35
melting temperature [2]: 63.4 C
purified protein yield per well [3]: 30.4 µg
